Our source for the percent of parent values is publication PMC11362571, “Multistage protective anti-CelTOS monoclonal antibodies with cross-species sterile protection against malaria” (Nature Communications, 2024).

Sequences and labels used below:
B1: monoclonal antibody 4h12 (IgG) [mouse] / P. falciparum CelTOS (3D7, PF3D7_1216600, residue F25-D182) [P. falciparum] (parent complex)
chain 1: QVQLQQSGPELVKPGASVKISCKASGYALSSSWLNWVKQRPGQGLEWIGRIFPGDGDTNYNGKFKGKATLTADKSSSTAYLQLSSLTSVDSAVYFCARGGTVVFDYWGQGTTLTVSSAKTTPPSVYPLAPGSAAQTNSMVTLGCLVKGYFPEPVTVTWNSGSLSSGVHTFPAVLQSDLYTLSSSVTVPSSTWPSETVTCNVAHPASSTKVDKKIVPRD
chain 2: DIVMTQSHKFMSTSVGDRVNITCKASQDVGIAVAWYQQRPGQSPKLLIYWASKRHTGVHDRFTGTGSGTDFTLTISTVQSEDLADYFCQQYSNSLTFGAGTTLELSRADAAPTVSIFPPSSEQLTSGGASVVCFLNNFYPKDINVKWKIDGSERQNGVLNSWTDQDSKDSTYSMSSTLTLTKDEYERHNSYACEATHKTSTSPIVKSFNR
chain 3: FRGNNGHNSSSSLYNGSQFIEQLNNSFTSAFLESQSMNKIGDDLAETISNELVSVLQKNSPTFLESSFDIKSEVKKHAKSMLKELIKVGLPSFENLVAENVKPPKVDPATYGIIVPVLTSLFNKVETAVGAKVSDEIWNYNSPDVSESEESLSDDFFD
B2: monoclonal antibody 7g7 (IgG) [mouse] / P. vivax CelTOS (Sal-1, PVX_123510, residue L36-D196) [P. vivax] (parent complex)
chain 1: EIQLQQSGPELVKPGASVKVSCKASGYSFTDYNMYWVKQSHGKSLEWIGYIDPYNGGTRYNQKFRDKATLTVDKSSSTAFMHLNSLTSEDSAVYYCARGYYYGNPLHFDVWGAGTTVTVSSAKTTPPSVYPLAPGSAAQTNSMVTLGCLVKGYFPEPVTVTWNSGSLSSGVHTFPAVLQSDLYTLSSSVTVPSSTWPSETVTCNVAHPASSTKVDKKIVPR
chain 2: QIVLTQSPAIMSASPGEKVTMTCSASSSVSYIHWYQQKSGTSPKRWIYDTSKLASGVPARFSGSGSGTSYSLTISSMEAEDAATYYCQQWISYPATFGAGTKLELKRADAAPTVSIFPPSSEQLTSGGASVVCFLNNFYPKDINVKWKIDGSERQNGVLNSWTDQDSKDSTYSMSSTLTLTKDEYERHNSYTCEATHKTSTSPIVKSFNRNEC
chain 3: LRGKSGSTASSSLEGGSEFSERIGNSLSSFLSESASLEVIGNELADNIANEIVSSLQKDSASFLQSGFDVKTQLKATAKKVLVEALKAALEPTEKIVASTIKPPRVSEDAYFLLGPVVKTLFNKVEDVLHKPIPDTIWEYESKGSLEEEEAEDEFSDELLD

In the first assay the parent is B1. As to the kind of experiment: ELISA; parent: 100; read off a plot. (In general: An ELISA detects its analyte on a solid surface through an enzyme-linked reagent.)
Take chain 3 Q35A, chain 3 S36A, chain 3 M37A: the percent of parent is about 100%.

As for chain 3 Q57A, chain 3 K58A, chain 3 N59A, the percent of parent was about 1%. Still for that read-out and setting: for chain 3 L32A, chain 3 E33A, chain 3 S34A the value was about 91%. On the same count and under the same terms, next, chain 3 P108A: about 96%. Still for that read-out and setting: next, chain 3 F63A, chain 3 L64A, chain 3 E65A: about 0%; chain 3 G112A, chain 3 I113A, chain 3 I114A: about 98%; chain 3 S67A, chain 3 F68A, chain 3 D69A: about 94%. On to chain 3 W138A, chain 3 N139A, chain 3 Y140A, for which the percent of parent is about 93%. The same measure, in the same setting: next, chain 3 K132A, chain 3 V133A, chain 3 S134A: about 99%. On the same count and under the same terms, next, chain 3 D135A, chain 3 E136A, chain 3 I137A: about 98%; chain 3 Y14A, chain 3 N15A, chain 3 G16A: about 96%.

Consider chain 3 S60A, chain 3 P61A, chain 3 T62A, for which the percent of parent is about 27%. On to chain 3 G16A, chain 3 S17A, chain 3 Q18A, for which the percent of parent is about 93%.

Turning to chain 3 I70A, chain 3 K71A, chain 3 S72A, chain 3 E73A, the percent of parent was about 75%. The same measure, in the same setting: for chain 3 S29A, chain 3 F31A the value was about 92%.

chain 3 V129A, chain 3 G130A: the percent of parent is about 100%.

A further assay covers variants of B2. Nature of the assay: ELISA; parent: 100; read off a plot.
For the variant chain 3 F63A, chain 3 L64A, chain 3 Q65A, the percent of parent is about 100%. On the same count and under the same terms, for chain 3 P132A, chain 3 I133A, chain 3 P134A the value was about 1%; for chain 3 L129A, chain 3 H130A, chain 3 K131A, about 1%; for chain 3 S32A, chain 3 E33A, chain 3 S34A, about 83%. The same measure, in the same setting: next, chain 3 E14A, chain 3 G15A, chain 3 G16A: about 100%.

In the case of chain 3 G67A, chain 3 F68A, chain 3 D69A, the percent of parent was about 99%. Same read-out and setting: next, chain 3 S36A, chain 3 L37A: about 93%; chain 3 K102A, chain 3 P103A, chain 3 P104A: about 86%.

For chain 3 S29A, chain 3 F30A, chain 3 L31A, the percent of parent is about 100%. Still for that read-out and setting: next, chain 3 G16A, chain 3 S17A, chain 3 E18A: about 98%; chain 3 S60A, chain 3 S62A: about 100%. Still for that read-out and setting: next, chain 3 G115A, chain 3 P116A, chain 3 V117A: about 94%; chain 3 E108A, chain 3 D109A: about 68%; chain 3 R105A, chain 3 V106A, chain 3 S107A: about 77%. On the same count and under the same terms, next, chain 3 W138A, chain 3 E139A, chain 3 Y140A: about 1%; chain 3 Q57A, chain 3 K58A, chain 3 D59A: about 98%. Take chain 3 F112A, chain 3 L113A, chain 3 L114A: the percent of parent is about 50%.
